How the values were obtained:
[1] = target: cTnC(C35S)-i9: cardiac troponin C (C35S) with the levosimendan analog i9 covalently bound to C84 (UniProt P63316); assay: NMR titration; 19F NMR; 530 μM Ca2+-saturated cTnC(C35S)-i9 in NMR buffer (100 mM KCl, 10 mM imidazole, 2 mM CaCl2, pH 6.9), 30 °C, titrated with switch-cTnI (144–163) 0 to 1,540 μM; area under the F4′ signal of i9 fit with one-to-one stoichiometry (xcrvfit)
[2] = target: cNTnC N-terminal domain (Homo sapiens) (UniProt P63316); conditions: cited from earlier work

Chain of switch-cTnI 144-163 (P19429 144-163): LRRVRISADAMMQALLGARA

| Kd [1] [µM] | Substance | Kd [2] [µM] |
| --- | --- | --- |
| 74 | switch-cTnI (residues 144–163) (peptide) | – |
| – | switch-cTnI 144-163 (from UniProt P19429) | 26 |

Source: PMC4831045
